Results on 7 molecules are retold here after patent US20250154283A1 (published 2025).

Assay [1] addresses T1, biotinylated human VWF cysteine knot (CK) domain construct (human, UniProt P04275 2724-2813, biotinylated in vitro (BirA) on the biotinylation tag; one N-glycan).
T1 construct: Expressed in HEK293 EBNA cells; disulfide-linked homodimer; also called human VWF CK; human VWF CK domain; not shown: in vitro biotinylation tag, HRV-3C site and 3 VWF residues before the CK domain
Put plainly: SPR, scFv captured via anti-SV5, CK domain injected, pH 5.5, apparent Kd.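 Further: scFvs from crude yeast supernatants captured on chip-bound anti-SV5 antibody, Kd computed as koff divided by kon, dimeric CK construct likely makes affinity appear higher.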 Background: Surface plasmon resonance follows binding to a sensor surface in real time, without labels.

Assay [2] has as its target T1, biotinylated human VWF cysteine knot …. Put plainly: SPR, scFv captured via anti-SV5, CK domain injected, pH 7.4, apparent Kd.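 Further: scFvs from crude yeast supernatants printed on an amine-coupled anti-SV5 lawn, Kd computed as koff over kon, likely overestimating affinity because the CK construct is dimeric.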
From the text: Briefly, a sensor chip was activated and coupled with an anti-SV5 mouse monoclonal antibody using amine coupling. The soluble scFvs in crude yeast supernatants were printed on the anti-SV5 lawn. […] From the measured association (kₒₙ) and dissociation (koff) rate constants, an apparent equilibrium dissociation constant (Kd=koff/kₒₙ) was estimated. Due to the dimeric state of the CK construct and consequent possibility for simultaneous binding of captured scFv to both monomers in the CK dimer, the SPR setup was expected to overestimate the binding affinity.
Assay [3] addresses T2, biotinylated cynomolgus monkey VWF cysteine knot (CK) domain construct (cynomolgus monkey, biotinylated in vitro (BirA) on the biotinylation tag; one N-glycan).
T2 construct: Expressed in HEK293 EBNA cells; disulfide-linked homodimer; also called cyno VWF CK; cyno VWF CK domain; not shown: in vitro biotinylation tag, HRV-3C site and 3 VWF residues before the CK domain
T2 chain: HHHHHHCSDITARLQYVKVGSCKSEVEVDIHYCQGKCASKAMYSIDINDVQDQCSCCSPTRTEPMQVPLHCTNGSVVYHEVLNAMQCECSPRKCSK
The description is as above.

B1: 5802_Lib4_scFv (scFv)
scFv: QVQLQESGPGLVKPSQTLSLTCTVSGYSISSGDYHWSWIRQPPGKGLEWIGYINPSGSADYNPSLKSRVTMSVDTSKNQFSLKVNSVTAADTAVYYCARDGVAATYYYYYGMDVWGQGTTVTVSSSGGSTITSYNVYYTKLSSSGTEIVMTQSPATLSLSPGERATLSCRASHSIGSNLAWYQQKPGQAPRLLIYDATTRATGIPARFSGSGSGTDFTLTISSLEPEDFAVYYCQQAYSFPLTFGGGTKVEIK
notes: VH-linker-VL; not shown: C-terminal 3xFLAG and SV5 tags
Consider B1, for which the Kd amounted to 1.09 nM in assay [1], 0.101 nM in assay [2] and 0.016 nM in assay [3].

B2: Lib1_P1_A2_scFv (scFv)
scFv: QVQLVQSGAEVKKPGASVKVSCKVSEGTLSRHYINWVRQAPGKGLEWMGGINAKSGATIYAQKFQGRVTMTEDTSTDTAYMELSSLKSEDTAVYYCAKDTGDDILTDYSDAFDIWGQGTMVTVSSSGGSTITSYNVYYTKLSSSGTDIQMTQSPSSVSASVGDRVTITCRASQNIGTSLAWYQQKPGKAPKLLIYGASNLESGVPSRFSGSGSGTDFTLTISSLQPEDFANYYCLQYNDWPPLYSFGGGTKVEIK
notes: as for B1
Turning to B2, the Kd in assay [1] came out at 0.076 nM; in assay [2] it was 1.78 nM.

B3: Lib4_P2_A11_scFv (scFv)
scFv: QVQLQESGPGLVKPSQTLSLTCTVSGVTFSSYGWSWIRQPPGKGLEWIGYVDTSGSTDYNPSLKSRVTMSVDTSKNQFSLKVNSVTAADTAVYYCARTTYYYDSSGFARGWFDPWGQGTLVTVSSSGGSTITSYNVYYTKLSSSGTEIVMTQSPATLSLSPGERATLSCRASRSISTNLAWYQRKPGQAPRLLIYDTSNRAPGIPARFSGSGSGTDFTLTISSLEPEDFAVYYCLQYDVSPYTFGGGTKVEIK
notes: VH-linker-VL; also called Lib4_P2_All; not shown: C-terminal 3xFLAG and SV5 tags
Consider B3, for which the Kd in assay [1] was 0.033 nM; in assay [2], 3.11 nM.

B4: 7046_Lib8_scFv (scFv)
scFv: EVQLVESGGGLVQPGRSLRLSCAASGFNFHNYDMHWVRQAPGKGLEWVSAISGSGYTADYADSVEGRFTISRDNAKNSLYLQMNSLRAEDTAVYYCAKSHSSGWSSAFDIWGQGTMVTVSSSGGSTITSYNVYYTKLSSSGTDIQMTQSPSSLSASVGDRVTITCRASQTIGYWLAWYQQKPGKAPKLLIYDATNLATGVPSRFSGSGSGTDFTLTISSLQPEDVATYYCQHYNPYSQVTFGGGTKVEIK
notes: as for B1
Regarding B4, the Kd came out at 1.16 nM in assay [1], 0.088 nM in assay [2] and 0.002 nM in assay [3].

B5: Lib1_P1_A6_scFv (scFv)
scFv: QVQLVQSGAEVKKPGASVKVSCKVSGSTFSNYAIHWVRQAPGKGLEWMGGIVPLSGTAIYAQKFQGRVTMTEDTSTDTAYMELSSLKSEDTAVYYCARDQGESSGWYAIYYGMDVWGQGTTVTVSSSGGSTITSYNVYYTKLSSSGTDIQMTQSPSSVSASVGDRVTITCRASQGIGTWLAWYQQKPGKAPKLLIYGSSSRASGVPSRFSGSGSGTDFTLTISSLQPEDFANYYCQQSYGKPTFGGGTKVEIK
notes: as for B1
For B5, the Kd turned out to be 0.045 nM in assay [1], 0.092 nM in assay [2] and 0.059 nM in assay [3].

B6: 1374_Lib8_scFv (scFv)
scFv: EVQLVESGGGLVQPGRSLRLSCAASGVDFSTYAMHWVRQAPGKGLEWVSAISSSGAYTDYADSVEGRFTISRDNAKNSLYLQMNSLRAEDTAVYYCATDRGPFSGYGTQGWFDPWGQGTLVTVSSSGGSTITSYNVYYTKLSSSGTDIQMTQSPSSLSASVGDRVTITCRASQTIRSYLAWYQQKPGKAPKLLIYGASDLQSGVPSRFSGSGSGTDFTLTISSLQPEDVATYYCQQYANFPITFGGGTKVEIK
notes: as for B1
For B6, the values for the Kd in assay [1], in assay [2] and in assay [3] were 0.043 nM, 0.116 nM and 0.061 nM, respectively.

B7: 16_Lib8_scFv (scFv)
scFv: EVQLVESGGGLVQPGRSLRLSCAASGFRFDEYDMHWVRQAPGKGLEWVSAISSESASIDYADSVEGRFTISRDNAKNSLYLQMNSLRAEDTAVYYCARDGAYGDYFDYWGQGTMVTVSSSGGSTITSYNVYYTKLSSSGTDIQMTQSPSSLSASVGDRVTITCRASQDIKSWLAWYQQKPGKAPKLLIYGASTLQSGVPSRFSGSGSGTDFTLTISSLQPEDVATYYCQQSYSAPYTFGGGTKVEIK
notes: as for B1
Regarding B7, the Kd is 1.05 nM in assay [1] and 2.11 nM in assay [2].
